Positions count from the first letter of the chain named. Numbers in names are those of the source.
B1: 2M1 (antibody, V domains shown)
VH: EVQLVESGGGLVKPGGSLRLSCAASGFTFSSYTMNWVRQAPGKGLEWVSSITSSTSYIYYADSVKGRFTISRDNAKNSLYLQMNSLRAEDTSVYYCVRDWSIAARGAWFDPWGQGTLVTVSS
VL: DIQMTQSPSSVSASVGDRVTITCRASQGIGSWLAWYQQKPGKAPKFLIYAASSLQGGVPSRFSGSGSGTDFTLTISSLQPEDFATYYCQQANSFPLTFGGGTKVEIK
B2: 1P9 with effector knockout mutations L234F/L235E/P331S (antibody, V domains shown)
VH: EVQLVESGGGLVQPGGSLRLSCAASGFTFSTYWMSWVRQAPGKGLEWVANIKQDGGERYYVDSVKGRFTISRDNAKSSLYLQMNSLRAEDTALYYCARLRLYSDYEDYWGQGTLVTVSS
VL: B1 VL with G30S, F46L, A50S, A51V, G56S, F83S, F94L, L96P
notes: Same variable regions as 1P9; also called 1P9-EKO; 1P9 (L234F/L235E/P331S)
B3: 2M3 (antibody, V domains shown)
VH: EVQLVESGGGFVQTGGSLRLSCAASGFNFRSYDMHWVRQVIGKGLEWVSGIGPGGDTYYPGSVKGRFTISRENAKNSLYLQMNSLRAGDTAVYYCAREQFEGHYFDYWGQGTLVTVSS
VL: B1 VL with T20N, G30S, G41W, F46L, A50T, G56S, L96I, G100Q, K103R, V104L
B4: 1P9-EKO-IR700 conjugate (antibody, V domains shown)
VH: B2 VH
VL: B1 VL with G30S, F46L, A50S, A51V, G56S, F83S, F94L, L96P
modifications: IRDye 700DX (IR700) attached via NHS ester; sites not stated; IRDye 700DX (IR700) attached via NHS ester; sites not stated; DAR 2.5 per antibody
notes: also called 1P9-EKO (conjugate); anti-PD-L1-IR700 conjugate with effector knock-out Fc region
B5: 2M2 (antibody, V domains shown)
VH: QVQLVQSGAEVKKPGASVKVSCKASGYTFTNYGISWVRQAPGQGLEWMGWISAYNGHTNYAQKVQGRVTMTTDTSTSTAFMELRSLRSDDSAVYYCARGTSGDYWGQGTLVTVSS
VL: not shown
B6: 2M5 (antibody, V domains shown)
VH: EVQLVESGGGLVKPGGSLRVSCAASGFTLSSYSMNWVRQAPGKGLEWVSSISSSSSYIYYADSVKGRFTISRDNAKNLLYLQMNSLRAEDTAVYYCAREGGAARPSWFDPWGQGTLVTVSS
VL: QAVVTQESALTTSPGETVTLTCRSSTGAVTTSNYANWVQEKPDHLFTGLIGGTNNRAPGVPARFSGSLIGDKAALTITGAQTEDEAIYFCALWYRNHWVFGGGTKLTVL
B7: 3B2 (antibody, V domains shown)
VH: EVQLQESGPSLVKPSQTLSLTCSVTGDSITSGYWNWIRKFPGNKLEYMGYISYTGSTYYNPSLKSRISITRDTSKNQYYLQLDSVTTEDTATYYCARKGGWLLPFAYWGQGTLVTVSA
VL: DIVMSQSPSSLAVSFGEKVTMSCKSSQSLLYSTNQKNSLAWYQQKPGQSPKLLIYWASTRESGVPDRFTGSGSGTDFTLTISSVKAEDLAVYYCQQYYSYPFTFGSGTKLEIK
B8: 3B4 (antibody, V domains shown)
VH: B7 VH with Y47S, I67L, Y78F, D83N, R97S, K98G, G99L, G100L, L103A, P104W
VL: DIVMSQSPSSLAVSVGEKVTMSCKSSQSLLYSSNQKNSLAWYQQKPGQSPKLLIYWASTRESGVPDRFTGSGSGTDFTLTISSVRAEDLAVYYCQQYYGYPFTFGGGTKLEIK
B9: 3B6 (antibody, V domains shown)
VH: EVKLVESGGGLVQPGGSLRLSCGTSGFTFSDFYVEWVRQPPGKRLEWIAASRNKVNDYTTEYSESVKGRFIVSRDTSQNILYLQMNALRAEDSAIYYCARNVPWDGWYFDVWGAGTAVTVSS
VL: DIVMTQSQKFMSTSVGDRVSITCKASQNVRTAVAWFQQKPGQSPKALIYLASTRHTGVPDRFTGSGSGTDFTLTISNVQSEDLADYFCLQHWNYPRTFGGGTKLEIK
B10: 3B1 (antibody, V domains shown)
VH: QIQLVQSGPELKKPGETVKISCKASGYDFTNYGMNWVKQAPGKGLKWMGYINTYTGEPAYADDFKGRFAFSLETSARTAYLRINNLKNEDTATYFCATRAYYGHYLAYWGQGTLVTVSA
VL: DVLMTQTPLSLPVSLGDQASISCRSSQRIVHSNGNTYLEWYLQKPGQSPKLLIYKVSNRFSGVPDRFSGSGSGTDFTLKISRVEAEDLGVYYCFQGSHVPYTFGGGTKLEIK
B11: 3B5 (antibody, V domains shown)
VH: B10 VH
VL: QIVLTQSPAIMSASPGEKVTITCSASSSVSYMHWFQQKPGTSPKLWIYSTSNLASGVPARFSGSGSGTSYSLTISRMEAEDAATYYCQQRSSYPFTFGSGTKLEIK
B12: 1P4-IR700 (antibody, V domains shown)
VH: QVQLVESGGGVVQPGRSLRLSCAASGFTFSNYGMHWVRQAPGKGLEWVSLILYDGSNKYYADSVKGRFTISRDNSKNTLYLQMNSLRAEDTAVYYCARDRVWLDVWGKGTTVTVSS
VL: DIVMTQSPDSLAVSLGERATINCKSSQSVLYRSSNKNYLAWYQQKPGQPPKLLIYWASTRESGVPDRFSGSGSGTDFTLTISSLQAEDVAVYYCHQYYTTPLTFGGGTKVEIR
modifications: IRDye 700DX (IR700) attached via NHS ester; sites not stated; IRDye 700DX (IR700) attached via NHS ester; sites not stated; DAR 2.9 per antibody
notes: also called 1P4-IR700 conjugate; anti-PD-L1-IR700 conjugate
B13: 1P4 with effector knockout (EKO) mutations L234F/L235E/P331S (antibody, V domains shown)
VH: B12 VH
VL: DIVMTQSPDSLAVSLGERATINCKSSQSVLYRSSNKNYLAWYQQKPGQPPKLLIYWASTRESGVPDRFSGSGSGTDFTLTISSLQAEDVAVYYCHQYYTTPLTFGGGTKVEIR
notes: Same variable regions as 1P4; also called 1P4-EKO; 1P4 (L234F/L235E/P331S)
B14: 1P4-EKO-IR700 conjugate (antibody, V domains shown)
VH: B12 VH
VL: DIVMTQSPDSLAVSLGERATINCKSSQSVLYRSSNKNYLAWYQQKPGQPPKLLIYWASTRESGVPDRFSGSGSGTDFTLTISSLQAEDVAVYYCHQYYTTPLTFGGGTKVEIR
modifications: IRDye 700DX (IR700) attached via NHS ester; sites not stated; IRDye 700DX (IR700) attached via NHS ester; sites not stated; DAR 2.7 per antibody
notes: also called 1P4-EKO (conjugate); anti-PD-L1-IR700 conjugate with effector knock-out Fc region

Key:
[1] = biological target: T1, 6xHis-tagged huPD-L1 (human, UniProt Q9NZQ7 19-238); assay: ELISA, plate-coated 6xHis huPD-L1, A450
T1 construct: also called human PD-L1 (RD Systems 9049-B7); extracellular domain of human PD-L1 fused to a His tag; not shown: 6xHis tag
T1 sequence (Q9NZQ7 19-238): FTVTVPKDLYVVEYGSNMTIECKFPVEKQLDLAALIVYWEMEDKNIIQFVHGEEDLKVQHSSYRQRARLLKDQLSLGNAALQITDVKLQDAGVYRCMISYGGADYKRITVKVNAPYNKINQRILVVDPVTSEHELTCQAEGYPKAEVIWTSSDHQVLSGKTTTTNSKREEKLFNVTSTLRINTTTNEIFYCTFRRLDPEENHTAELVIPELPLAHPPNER
Method: (§1) Hybridoma supernatants were tested for binding to huPD-L1, cyPD-L1, and muPD-L1 by ELISA. Briefly, 30 μL 6xHis-tagged huPD-L1, cyPD-L1, or muPD-L1 (1 μg/mL in PBS) were immobilized in wells of a 96-well assay plate overnight at 4° C. After washing and blocking steps, 30 μL of antibody supernatant were added to the plate and incubated at room temperature for 1 hr. Bound human antibody was detected using horseradish peroxidase (HRP)-conjugated goat anti-human Fc (Invitrogen Cat. No. 109-035-097; diluted 1:5000) or goat anti-mouse Fc HRP (Invitrogen Cat. No. 115-035-071) as a control. Bound antibody was detected with 1-Step Ultra™ TMB-ELISA Substrate (ThermoFisher Scientific Cat. No. 34029). When the reaction was complete the reaction was stopped, and the plate was read at 450 nm.
(§2) Anti-PD-L1 antibodies, described in Example 1A and manufactured substantially as described in Example 1B, were tested for to huPD-L1 and cyPD-L1 by ELISA substantially as described in Example 1A, using 12 dilutions of antibody ranging from 1 ng/ml to 3 mg/mL.

[2] = biological target: T2, 6xHis-tagged cyPD-L1 (cynomolgus monkey, UniProt Q9NZQ7 19-238 (human entry)); assay: ELISA, plate-coated 6xHis cyPD-L1, A450
T2 construct: The assay text says only '6xHis-tagged cyPD-L1'; also called cynomolgus PD-L1; not shown: 6xHis tag
T2 sequence (Q9NZQ7 other isoform, or with tags, fused parts or gaps): as the sequence (Q9NZQ7 19-238) above, with A33T, A34S, S62N, R68Q, Q82R, F173L, T185A, T192I, H215L counted along it
Method: as §1, §2

[3] = biological target: T3, human PD-L1 expressed on cells (human, UniProt Q9NZQ7 19-290); assay: flow cytometry, PD-L1-expressing CHO cells, MFI (FITC)
T3 construct: whole, on cells; One entry covers all human PD-L1-bearing cells; also called huPD-L1 on CHO cells (CHO-hPD-L1); PD-L1 on A431 cells
T3 sequence (Q9NZQ7 19-290): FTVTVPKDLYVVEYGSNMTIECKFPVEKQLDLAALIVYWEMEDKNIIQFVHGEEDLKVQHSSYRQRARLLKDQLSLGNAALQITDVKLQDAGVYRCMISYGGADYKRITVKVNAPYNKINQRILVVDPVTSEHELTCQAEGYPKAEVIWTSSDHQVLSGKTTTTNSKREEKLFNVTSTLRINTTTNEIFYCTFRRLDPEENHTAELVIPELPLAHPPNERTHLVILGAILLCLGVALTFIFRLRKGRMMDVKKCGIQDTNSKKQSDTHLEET
Method: Wild-type (wt) Chinese hamster ovary (CHO) cells (ATCC) and CHO cells engineered to express huPD-L1 (BPS Bioscience) were seeded at 200,000 cells in 50 μL FACS buffer (PBS containing 1% FBS and 5 mM EDTA) per well of a 96-well plate. Cell viability was assessed by adding 50 μL 2×Zombie Violet (BioLegend). Dead cell controls were also prepared and 2×Zombie violet was added. After incubating 20-30 minutes at room temperature, protected from light, 150 μL FACS buffer were added to each well. The plates were centrifuged, and the supernatant was aspirated. […] The plates were incubated 30 minutes on ice, protected from light. 150 μL FACS buffer were then added to each well and the plate was centrifuged. The supernatant was removed and the cells were washed three times in 200 μL FACS buffer. […] The cells were incubated 30 minutes on ice, protected from light. 150 μL FACS buffer were then added to each well and the plate was centrifuged. Supernatant was removed and the cells were washed twice with 200 μL FACS buffer. The cells were then resuspended in FACS buffer and analyzed by CytoFLEX using the appropriate channels. After gating for whole, single, live cells, the MFI in the APC channel (or FITC channel for human control samples) was normalized to the signal from hybridoma media alone (or isotype control for human control). MFI fold over media alone was determined for each clone supernatant tested.

[4] = biological target: T1, 6xHis-tagged huPD-L1; assay: ELISA, plate-coated 6xHis huPD-L1, OD 450 nm
Method: as §1

[5] = biological target: T3, human PD-L1 expressed on cells; assay: cell-based or functional assay
[6] = biological target: T4, PD-L1-His (Acro Cat PDL-H5229) (human, UniProt Q9NZQ7 19-238); assay: SPR (Biacore 4000) as in Example 3, conjugate captured, PD-L1-His analyte, 37° C.
T4 construct: also called human PD-L1 (SPR analyte); not shown: His tag
T4 sequence (Q9NZQ7 19-238 limits assumed): as the sequence (Q9NZQ7 19-238) above
Method: (§3) The binding affinities of the generated antibodies to human PD-L1 were determined by surface plasmon resonance. […] PD-L1-His (Acro Cat PDL-H5229) was tested for binding in a 3-fold titration series up to 100 nM. Data were collected in HBS-P (pH 7.4) at 37° C. and 25° C.
(§4) The binding affinities of the generated anti-PD-L1 conjugates were determined by surface plasmon resonance, as described in Example 3.

[7] = biological target: T4, PD-L1-His (Acro Cat PDL-H5229); assay: SPR (Biacore 4000) as in Example 3, conjugate captured, PD-L1-His analyte, 25° C.
Method: as §3, §4

[8] = biological target: T2, 6xHis-tagged cyPD-L1; assay: ELISA, plate-coated 6xHis cyPD-L1, OD 450 nm
Method: as §1

[9] = biological target: T3, human PD-L1 expressed on cells; assay: cell-based or functional assay; remark: listed apart in the source

Binder | Absolute IC50 [1] [µg/mL] | Absolute IC50 [2] [µg/mL] | EC50 [3] [µg/mL] | further results
B1 | 0.428 | 0.559 | – | –
B2 | – | – | 0.0186 | –
B3 | 0.788 | 0.672 | – | –
B4 | – | – | 0.0174 | –
B5 | 0.0838 | 0.167 | – | –
B6 | 0.788 | 0.234 | – | –
B7 | 0.225 | 0.341 | – | –
B8 | 0.152 | 0.106 | – | –
B9 | 0.33 | 0.246 | – | –
B10 | 0.0498 | 0.0569 | – | –
B11 | – | 0.325 | – | binding result [1]: binds
B12 | – | – | 0.133 | EC50 [4]: 0.189 µg/mL; EC50 of luminescence (RLU), PD-1:PD-L1 Blockade Bioassay (PD-L1 aAPC/CHO-K1 cells with PD-1 Effector Jurkat NFAT-luciferase cells) [5]: 0.855 µg/mL; Kd [6]: 23 nM; koff [6]: 0.011 s⁻¹; kon [6]: 470000 M⁻¹ s⁻¹; Kd [7]: 16 nM; koff [7]: 0.0056 s⁻¹; kon [7]: 350000 M⁻¹ s⁻¹; EC50 [8]: 0.193 µg/mL; EC50 of photoimmunotherapy-induced killing of A431 cells (Cell Tox Green, 128 J/cm^2) [9]: 0.103 µg/mL
B13 | – | – | 0.0455 | –
B14 | – | – | 0.145 | –

Source: patent US20250145716A1 (RAKUTEN MEDICAL, published 2025)
